Measurements published in article PMC10853800.

T1: EYA4 1-365 (UniProt O95677 1-365)
T1 sequence: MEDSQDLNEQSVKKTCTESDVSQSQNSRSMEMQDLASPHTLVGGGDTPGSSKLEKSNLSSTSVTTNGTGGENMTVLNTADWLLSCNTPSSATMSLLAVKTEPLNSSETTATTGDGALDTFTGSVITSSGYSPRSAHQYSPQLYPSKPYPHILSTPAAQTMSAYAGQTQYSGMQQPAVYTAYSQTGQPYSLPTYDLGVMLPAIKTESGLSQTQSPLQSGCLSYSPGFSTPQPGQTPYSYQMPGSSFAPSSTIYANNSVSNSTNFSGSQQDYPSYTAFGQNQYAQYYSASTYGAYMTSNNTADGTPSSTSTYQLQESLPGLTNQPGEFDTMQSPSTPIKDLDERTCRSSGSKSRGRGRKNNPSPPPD

T2: EYA4 358-639 (UniProt O95677 358-639)
T2 sequence: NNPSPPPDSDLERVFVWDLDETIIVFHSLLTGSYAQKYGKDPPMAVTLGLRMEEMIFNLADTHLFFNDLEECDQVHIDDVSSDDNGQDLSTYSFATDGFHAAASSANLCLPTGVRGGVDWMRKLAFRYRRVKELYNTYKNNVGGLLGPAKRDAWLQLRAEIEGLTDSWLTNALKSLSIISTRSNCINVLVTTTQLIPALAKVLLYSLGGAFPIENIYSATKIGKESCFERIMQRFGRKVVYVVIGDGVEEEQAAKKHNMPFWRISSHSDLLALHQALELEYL


Columns and labels:
[1] = target: RAD51 WT (UniProt Q06609 1-339); assay: negative-stain EM
[2] = target: RAD51 T309A (UniProt Q06609 1-339, T309A); assay: negative-stain EM
[3] = target: T3, RAD51 Y54F/Y315F (UniProt Q06609 1-339, Y54F;Y315F); assay: negative-stain EM
[4] = target: T1, EYA4 1-365; assay: MST
[5] = target: T2, EYA4 358-639; assay: EMSA
[6] = target: T3, RAD51 Y54F/Y315F; assay: MST
[7] = target: T3, RAD51 Y54F/Y315F; assay: MST; remark: listed apart in the source

T3 sequence (Q06609 whole entry Y54F/Y315F): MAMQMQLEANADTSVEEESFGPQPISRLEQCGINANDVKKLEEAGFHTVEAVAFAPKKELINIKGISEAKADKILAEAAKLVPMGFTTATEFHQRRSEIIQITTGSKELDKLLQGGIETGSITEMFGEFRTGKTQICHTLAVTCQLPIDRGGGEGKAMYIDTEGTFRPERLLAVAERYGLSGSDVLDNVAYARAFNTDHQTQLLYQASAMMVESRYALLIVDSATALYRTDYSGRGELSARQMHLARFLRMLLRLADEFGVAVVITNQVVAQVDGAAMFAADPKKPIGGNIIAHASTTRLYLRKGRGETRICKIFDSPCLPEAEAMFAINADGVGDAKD
RAD51 WT, sequence (Q06609 whole entry): as the sequence (Q06609 whole entry Y54F/Y315F) above, with F54Y, F315Y counted along it
RAD51 T309A, sequence (Q06609 whole entry T309A): as the sequence (Q06609 whole entry Y54F/Y315F) above, with F54Y, T309A, F315Y counted along it

| Binder | binding result [1] | binding result [2] | binding result [3] | Kd [4] | binding result [5] | binding result [6] | binding result [7] |
| --- | --- | --- | --- | --- | --- | --- | --- |
| 83(dT) (ssDNA) DNA: TTTTTTTTTTTTTTTTTTTTTTTTTTTTTTTTTTTTTTTTTTTTTTTTTTTTTTTTTTTTTTTTTTTTTTTTTTTTTTTTTTT | binds | binds | binds | – | – | – | – |
| Cy5-P1 ssDNA (ssDNA) DNA: TTATATCCTTTACTTTGAATTCTATGTTTAACCTTTTACTTATTTTGTATTAGCCGGATCCTTATTTCAATTATGTTCAT | – | – | – | 303 nM | no binding | binds | – |
| Cy5-P1/P2 dsDNA (dsDNA) DNA 1: TTATATCCTTTACTTTGAATTCTATGTTTAACCTTTTACTTATTTTGTATTAGCCGGATCCTTATTTCAATTATGTTCAT DNA 2: ATGAACATAATTGAAATAAGGATCCGGCTAATACAAAATAAGTAAAAGGTTAAACATAGAATTCAAAGTAAAGGATATAA | – | – | – | 732 nM | no binding | – | binds |
